Measured values from patent publication US20160185837A1 (Medimmune Limited, priority 2013, published 2016).
Like-named read-outs stand apart in the source and are kept apart here.

Key:
[1] = PK by Activity
Protocol: Table printed on a drawing sheet, FIG. 3D-F
(§1) Circles: IV injection of 1 mg/kg, squares: subcutaneous injection of 1 mg/kg. Pharmacokinetic parameters Cmax, bioavailability (F %) and half-life T1/2 are compared in panel C.
(§2) Circles: IV injection of 1 mg/kg, squares: subcutaneous injection of 1 mg/kg. Pharmacokinetic parameters Cmax, bioavailability (F %) and half life T112 are compared in panel F.
First reader's note: Panel F of FIG. 3D-F; the pharmacokinetic parameters were derived from plasma levels measured by activity (sheet heading 'PK by Activity').

[2] = PK by Fc Detection
Protocol: Table printed on a drawing sheet, FIG. 3A-C
Title: PK by Fc Detection
as §1, §2
First reader's note: Panel C of FIG. 3A-C; the title 'PK by Fc Detection' is printed over the whole sheet, including plot panels A and B.

[3] = tested on: cyno GCGr (cGCGr); test: cAMP assay, cells expressing cyno GCGr, 4.2% cyno serum albumin; type: cell-based, cynomolgus monkey; settings: culture medium containing 4.2% cyno serum albumin
Excerpt: (§3) In certain aspects, the assay can also be carried out in medium supplemented with serum albumin that corresponds to the receptor being tested, e.g., human serum albumin for testing cAMP activity at hGIPr or hGLP-1r, rat serum albumin for testing cAMP activity at rGIPr or rGLP-1r, and so on. Low protein binding 384-well plates (Greiner #781280) were used to perform eleven 1 in 5 serial dilutions of test samples that were made in assay medium. All sample dilutions were made in duplicate.
A frozen cryo-vial of cells expressing the receptor of interest was thawed rapidly in a water-bath, transferred to pre-warmed assay media and spun at 240×g for 5 minutes. Cells were re-suspended in assay buffer at an optimized concentration (e.g., hGLP-1r and hGIPr cells at 0.5×10^5 cells/ml). […]
cAMP levels were measured using a commercially available cAMP dynamic 2 HTRF kit (Cisbio, Cat #62AM4PEJ), following the two step protocol as per manufacturer's recommendations. […] Plates were incubated at room temperature for one hour and then read on an Envision (Perkin Elmer) using excitation wavelength of 320 nm and emission wavelengths of 620 nm & 665 nm. Data was transformed to % Delta F as described in manufacturer's guidelines and then transformed to percent activation of maximal native agonist response and analysed by 4-parameter logistic fit to determine EC50 values.

[4] = molecular target: T1, human GIP receptor (hGIPr) (Homo sapiens, UniProt P48546); test: BSA-cAMP assay, cells expressing human GIP receptor; type: cell-based; settings: BSA-cAMP assay
T1 construct: expressed in transfected cells
T1 sequence (P48546 22-466): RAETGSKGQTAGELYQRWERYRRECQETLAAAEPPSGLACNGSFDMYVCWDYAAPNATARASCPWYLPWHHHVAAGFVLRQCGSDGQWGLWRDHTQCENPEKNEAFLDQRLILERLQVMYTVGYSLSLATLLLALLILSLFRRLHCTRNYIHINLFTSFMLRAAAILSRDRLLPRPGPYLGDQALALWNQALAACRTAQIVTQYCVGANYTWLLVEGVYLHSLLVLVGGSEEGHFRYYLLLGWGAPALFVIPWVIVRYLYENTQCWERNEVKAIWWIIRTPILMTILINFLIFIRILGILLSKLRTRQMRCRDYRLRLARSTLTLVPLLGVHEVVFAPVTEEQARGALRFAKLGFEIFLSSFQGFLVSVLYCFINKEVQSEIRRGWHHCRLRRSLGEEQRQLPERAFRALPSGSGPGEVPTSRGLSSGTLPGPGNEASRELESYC
Protocol: For human GIPr, two different lines were used, shown as “hGIPr” and “hGIPr (C3)” in Table 11.
(§4) One basic cAMP assays was performed, differing in the medium used for the assay, the “BSA-cAMP assay”:
(§5) BSA-based assay medium: 0.1% bovine serum albumin (BSA) in
as §3, with “Low protein binding 384-well plates (Greiner #781280) were used to perform eleven 1 in 5 serial dilutions of test samples that were made in assay medium.” left out
(§6) A frozen cryo-vial of cells expressing the receptor of interest was thawed rapidly in a water-bath, transferred to pre-warmed assay media and spun at 240×g for 5 minutes. Cells were re-suspended in assay buffer at an optimized concentration (e.g., hGLP-1r and hGIPr cells at 0.5×10^5 cells/ml).
(§7) To this, 5 μL cell suspension was added and the plates incubated at room temperature for 30 minutes.
(§8) cAMP levels were measured using a commercially available cAMP dynamic 2 HTRF kit (Cisbio, Cat #62AM4PEJ), following the two step protocol as per manufacturer's recommendations. In brief; anti-cAMP cryptate (donor fluorophore) and cAMP-d2 (acceptor fluorophore) were made up separately by diluting each 1/20 in conjugate & lysis buffer provided in the kit. 5 μL anti-cAMP cryptate was added to all wells of the assay plate, and 5 μL cAMP-d2 added to all wells except non-specific binding (NSB) wells, to which conjugate and lysis buffer was added. […] Data was transformed to % Delta F as described in manufacturer's guidelines and then transformed to percent activation of maximal native agonist response and analysed by 4-parameter logistic fit to determine EC50 values.
(§9) We used unconstrained 4 parameter logistic fit of data, curve mid-point to determine EC50. This was tested on two occasions, not two batches.

[5] = molecular target: T2, rat GLP-1 receptor (rGLP-1r) (Rattus norvegicus, UniProt P32301); test: BSA-cAMP assay, cells expressing rat GLP-1 receptor; type: cell-based; settings: BSA-cAMP assay
T2 construct: expressed in transfected cells; host or cells: HEK293s or CHO cells
T2 sequence (P32301 22-463): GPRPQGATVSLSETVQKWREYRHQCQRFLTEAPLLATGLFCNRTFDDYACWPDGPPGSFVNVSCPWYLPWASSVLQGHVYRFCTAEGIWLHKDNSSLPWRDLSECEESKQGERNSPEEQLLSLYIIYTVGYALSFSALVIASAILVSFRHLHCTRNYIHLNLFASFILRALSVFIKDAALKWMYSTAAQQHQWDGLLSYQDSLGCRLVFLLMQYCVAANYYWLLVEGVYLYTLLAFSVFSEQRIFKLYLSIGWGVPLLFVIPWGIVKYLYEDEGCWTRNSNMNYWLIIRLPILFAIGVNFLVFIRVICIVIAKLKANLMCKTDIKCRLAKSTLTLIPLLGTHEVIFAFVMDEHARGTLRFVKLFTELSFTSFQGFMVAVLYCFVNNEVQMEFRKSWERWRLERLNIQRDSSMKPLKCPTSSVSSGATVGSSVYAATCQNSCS
Protocol: as §4, §5
as §3, with “Low protein binding 384-well plates (Greiner #781280) were used to perform eleven 1 in 5 serial dilutions of test samples that were made in assay medium.” left out
as §6, §7, §8, §9
(§10) In order to be able to carry out in vivo studies in rodents, IP088 was tested for potency against the mouse receptors mGIPr and mGLP-1r as well as the rat receptors rGIPr and rGLP-1r, using cells expressing the respective receptors in the cAMP assay described above.

[6] = molecular target: T3, human glucagon receptor (GCGr) (Homo sapiens, UniProt P47871); test: BSA-cAMP assay, cells expressing human glucagon receptor; type: cell-based
T3 construct: expressed in transfected cells; host or cells: HEK293s or CHO cells
Protocol: as §4, §5
as §3, with “Low protein binding 384-well plates (Greiner #781280) were used to perform eleven 1 in 5 serial dilutions of test samples that were made in assay medium.” left out
as §6, §7, §8, §9

[7] = molecular target: T4, mouse GLP-1 receptor (mGLP-1r) (Mus musculus, UniProt O35659); test: BSA-cAMP assay, cells expressing mouse GLP-1 receptor; type: cell-based; settings: BSA-cAMP assay
T4 construct: expressed in transfected cells; host or cells: HEK293s or CHO cells
T4 sequence (O35659 22-463): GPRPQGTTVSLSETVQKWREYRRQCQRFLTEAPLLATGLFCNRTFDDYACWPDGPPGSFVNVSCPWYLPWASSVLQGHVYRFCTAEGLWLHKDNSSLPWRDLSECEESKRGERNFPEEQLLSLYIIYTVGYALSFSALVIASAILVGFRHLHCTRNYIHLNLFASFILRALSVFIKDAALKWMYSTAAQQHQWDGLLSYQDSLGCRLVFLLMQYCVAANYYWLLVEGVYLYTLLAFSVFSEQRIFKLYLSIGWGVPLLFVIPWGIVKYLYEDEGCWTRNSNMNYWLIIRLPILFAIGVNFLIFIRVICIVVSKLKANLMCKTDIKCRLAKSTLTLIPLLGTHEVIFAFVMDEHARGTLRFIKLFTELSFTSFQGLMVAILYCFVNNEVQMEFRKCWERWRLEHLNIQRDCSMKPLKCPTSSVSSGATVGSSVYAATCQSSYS
Protocol: as §4, §5
as §3, with “Low protein binding 384-well plates (Greiner #781280) were used to perform eleven 1 in 5 serial dilutions of test samples that were made in assay medium.” left out
as §6, §7, §8, §9, §10

[8] = molecular target: T5, rat GIP receptor (rGIPr) (Rattus norvegicus, UniProt P43219); test: BSA-cAMP assay, cells expressing rat GIP receptor; type: cell-based; settings: BSA-cAMP assay
T5 construct: expressed in transfected cells; host or cells: HEK293s or CHO cells
T5 sequence (P43219 19-455): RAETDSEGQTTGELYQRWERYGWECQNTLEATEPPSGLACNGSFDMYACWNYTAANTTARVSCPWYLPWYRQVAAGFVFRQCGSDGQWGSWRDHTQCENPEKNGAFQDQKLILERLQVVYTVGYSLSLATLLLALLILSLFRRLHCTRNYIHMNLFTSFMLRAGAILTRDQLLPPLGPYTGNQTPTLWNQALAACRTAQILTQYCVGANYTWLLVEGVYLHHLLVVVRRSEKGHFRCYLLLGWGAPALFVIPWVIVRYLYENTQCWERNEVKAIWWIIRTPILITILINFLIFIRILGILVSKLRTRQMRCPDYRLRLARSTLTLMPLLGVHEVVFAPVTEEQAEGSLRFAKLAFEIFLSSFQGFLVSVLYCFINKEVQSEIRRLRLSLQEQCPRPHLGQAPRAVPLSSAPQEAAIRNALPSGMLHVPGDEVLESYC
Protocol: as §4, §5
as §3, with “Low protein binding 384-well plates (Greiner #781280) were used to perform eleven 1 in 5 serial dilutions of test samples that were made in assay medium.” left out
as §6, §7, §8, §9, §10

[9] = molecular target: T6, mouse GIP receptor (mGIPr) (Mus musculus, UniProt Q0P543); test: BSA-cAMP assay, cells expressing mouse GIP receptor; type: cell-based; settings: BSA-cAMP assay
T6 construct: expressed in transfected cells; host or cells: HEK293s or CHO cells
T6 sequence (Q0P543 19-460): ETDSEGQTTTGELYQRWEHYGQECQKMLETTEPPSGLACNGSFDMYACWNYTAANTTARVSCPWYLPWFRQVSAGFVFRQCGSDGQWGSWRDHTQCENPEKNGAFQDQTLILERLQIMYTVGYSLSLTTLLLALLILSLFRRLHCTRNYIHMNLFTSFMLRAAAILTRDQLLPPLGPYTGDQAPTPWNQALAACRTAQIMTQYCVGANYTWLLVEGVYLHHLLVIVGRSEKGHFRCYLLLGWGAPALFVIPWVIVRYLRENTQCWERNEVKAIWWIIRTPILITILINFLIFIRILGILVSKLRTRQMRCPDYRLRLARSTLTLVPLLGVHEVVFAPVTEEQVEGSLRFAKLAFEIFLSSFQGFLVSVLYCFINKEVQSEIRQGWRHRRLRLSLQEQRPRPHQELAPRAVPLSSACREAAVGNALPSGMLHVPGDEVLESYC
Protocol: as §4, §5
as §3, with “Low protein binding 384-well plates (Greiner #781280) were used to perform eleven 1 in 5 serial dilutions of test samples that were made in assay medium.” left out
as §6, §7, §8, §9, §10

[10] = molecular target: T7, human GLP-1 receptor (hGLP-1r) (Homo sapiens, UniProt P43220); test: BSA-cAMP assay, cells expressing human GLP-1 receptor; type: cell-based; settings: BSA-cAMP assay
T7 construct: expressed in transfected cells
Protocol: as §4, §5
as §3, with “Low protein binding 384-well plates (Greiner #781280) were used to perform eleven 1 in 5 serial dilutions of test samples that were made in assay medium.” left out
as §6, §7, §8, §9

T7 sequence (P43220 24-463): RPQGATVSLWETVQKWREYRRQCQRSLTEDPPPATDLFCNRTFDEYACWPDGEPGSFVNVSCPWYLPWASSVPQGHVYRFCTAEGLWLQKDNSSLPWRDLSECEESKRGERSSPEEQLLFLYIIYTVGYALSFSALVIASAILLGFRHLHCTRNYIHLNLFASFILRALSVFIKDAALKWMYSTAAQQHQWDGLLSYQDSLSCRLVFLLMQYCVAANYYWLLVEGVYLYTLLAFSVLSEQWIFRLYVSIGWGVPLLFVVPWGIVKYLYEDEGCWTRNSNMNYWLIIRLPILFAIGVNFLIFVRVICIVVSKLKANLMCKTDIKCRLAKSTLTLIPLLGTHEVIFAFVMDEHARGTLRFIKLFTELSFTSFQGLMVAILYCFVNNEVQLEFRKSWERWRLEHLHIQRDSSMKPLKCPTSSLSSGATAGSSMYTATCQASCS
T3 sequence (P47871 26-477): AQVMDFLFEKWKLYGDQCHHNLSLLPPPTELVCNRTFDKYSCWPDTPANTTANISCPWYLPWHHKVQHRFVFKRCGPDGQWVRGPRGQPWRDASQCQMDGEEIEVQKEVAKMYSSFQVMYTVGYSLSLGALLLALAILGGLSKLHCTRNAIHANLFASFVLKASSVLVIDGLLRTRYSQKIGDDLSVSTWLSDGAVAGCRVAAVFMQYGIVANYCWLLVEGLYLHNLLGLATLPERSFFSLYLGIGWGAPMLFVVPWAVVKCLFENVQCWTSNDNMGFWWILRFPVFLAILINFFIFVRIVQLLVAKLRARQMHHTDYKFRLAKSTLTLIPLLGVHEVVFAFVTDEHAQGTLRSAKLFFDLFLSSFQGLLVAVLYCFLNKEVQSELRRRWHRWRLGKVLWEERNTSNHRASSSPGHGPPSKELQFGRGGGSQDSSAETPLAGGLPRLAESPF

## GLP-1a-Fc (HGEGTFTSDVSSYLEEQAAKEFIAWLVKGR; /note=“Description of Artificial Sequence Synthetic GLP-1 Analog polypeptide”)
[1]
  Cmax: 24 nM
  F (%): 93%
  t½: 30 h
[2]
  Cmax: 8500 ng/mL
  F (%): 59%
  t½: 79 h

## hGCG: native human glucagon, comparator in cAMP assays
[3]
  EC50: 0.0036 nM

## IP275: Fc fusion, IgG1-TM, SEQ ID NO:332; agonist peptide YSEGTFTSDYSKLLEKEAQRLFIEWLLKGP (YSEGTFTSDYSKLLEKEAQRLFIEWLLKGPGGGGGSGGGGSGGGGSGGGGSATHTCPPC)
[4]; batch 1 unless a batch is given, read-out: cAMP activity hGIPr (EC50)
  EC50: 0.0087 nM
[5]; read-out: cAMP activity rGLP1r (EC50)
  EC50: 0.062 nM
[6]; batch 1 unless a batch is given, read-out: cAMP activity hGCGr (EC50)
  EC50: 230 nM
[7]; read-out: cAMP activity mGLP1r (EC50)
  EC50: 1.7 nM
[8]; read-out: cAMP activity rGIPr (EC50)
  EC50: 0.014 nM
[9]; read-out: cAMP activity mGIPr (EC50)
  EC50: 0.26 nM
[10]; batch 1 unless a batch is given, read-out: cAMP activity hGLP1r (EC50)
  EC50: 0.92 nM

## IP368 (YSEGTFTSDYRQAIDRQAIDEFIAWLLKGGGGGGGSGGGGSGGGGSGGGGSACPPC)
[4]; Batch 1, read-out: hGIPr cAMP activity EC50
  EC50: 0.2 nM
[5]; Batch 1, read-out: rGLP1r cAMP activity EC50
  EC50: 370 nM
[6]; Batch 1, read-out: hGCGr cAMP activity EC50
  EC50: > 4860 nM
[7]; Batch 1, read-out: mGLP1r cAMP activity EC50
  EC50: > 4860 nM
[8]; Batch 1, read-out: rGIPr cAMP activity EC50
  EC50: 0.22 nM
[9]; Batch 1, read-out: mGIPr cAMP activity EC50
  EC50: 1.3 nM
[10]; Batch 1, read-out: hGLP1r cAMP activity EC50
  EC50: 230 nM
